From patent publication US20140294758A1 (published 2014)

T1: intermediate affinity IL2 receptor on TF-1β cells (UniProt P14784 27-551; P31785 23-369)
T1 sequence (looked up) 1: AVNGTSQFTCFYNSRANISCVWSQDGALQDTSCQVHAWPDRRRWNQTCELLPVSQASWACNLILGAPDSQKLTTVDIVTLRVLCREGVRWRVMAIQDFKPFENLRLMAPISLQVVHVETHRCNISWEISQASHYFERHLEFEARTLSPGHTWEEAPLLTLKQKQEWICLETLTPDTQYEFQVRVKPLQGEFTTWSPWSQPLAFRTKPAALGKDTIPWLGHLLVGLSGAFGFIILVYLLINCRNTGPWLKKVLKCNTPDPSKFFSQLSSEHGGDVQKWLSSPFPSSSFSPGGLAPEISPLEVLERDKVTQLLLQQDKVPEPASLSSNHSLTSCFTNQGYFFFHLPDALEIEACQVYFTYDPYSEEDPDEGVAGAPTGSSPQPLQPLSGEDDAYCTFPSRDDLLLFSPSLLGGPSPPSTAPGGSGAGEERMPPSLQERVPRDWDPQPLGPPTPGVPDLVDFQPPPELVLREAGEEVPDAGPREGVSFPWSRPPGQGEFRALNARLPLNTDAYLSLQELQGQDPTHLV
T1 sequence (looked up) 2: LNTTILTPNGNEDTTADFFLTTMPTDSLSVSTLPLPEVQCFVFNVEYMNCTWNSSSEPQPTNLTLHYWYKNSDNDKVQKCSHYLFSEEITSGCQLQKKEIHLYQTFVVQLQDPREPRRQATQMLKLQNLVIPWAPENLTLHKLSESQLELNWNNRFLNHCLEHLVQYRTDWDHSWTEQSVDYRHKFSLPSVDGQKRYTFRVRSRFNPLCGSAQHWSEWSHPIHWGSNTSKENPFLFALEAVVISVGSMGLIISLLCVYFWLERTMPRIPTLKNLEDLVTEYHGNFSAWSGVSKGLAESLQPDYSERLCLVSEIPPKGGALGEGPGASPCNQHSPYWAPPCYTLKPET

T2: high affinity IL2 receptor on CTLL-2 mouse T cells (mouse, UniProt P01590 22-268; P16297 27-539; P34902 23-369)
T2 sequence (looked up) 1: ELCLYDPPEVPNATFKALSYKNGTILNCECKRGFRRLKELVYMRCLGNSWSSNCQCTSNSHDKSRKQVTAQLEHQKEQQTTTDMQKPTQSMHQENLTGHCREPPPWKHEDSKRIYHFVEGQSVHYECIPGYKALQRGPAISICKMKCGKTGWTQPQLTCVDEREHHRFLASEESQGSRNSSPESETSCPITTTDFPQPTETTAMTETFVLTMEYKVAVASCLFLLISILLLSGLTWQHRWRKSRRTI
T2 sequence (looked up) 2: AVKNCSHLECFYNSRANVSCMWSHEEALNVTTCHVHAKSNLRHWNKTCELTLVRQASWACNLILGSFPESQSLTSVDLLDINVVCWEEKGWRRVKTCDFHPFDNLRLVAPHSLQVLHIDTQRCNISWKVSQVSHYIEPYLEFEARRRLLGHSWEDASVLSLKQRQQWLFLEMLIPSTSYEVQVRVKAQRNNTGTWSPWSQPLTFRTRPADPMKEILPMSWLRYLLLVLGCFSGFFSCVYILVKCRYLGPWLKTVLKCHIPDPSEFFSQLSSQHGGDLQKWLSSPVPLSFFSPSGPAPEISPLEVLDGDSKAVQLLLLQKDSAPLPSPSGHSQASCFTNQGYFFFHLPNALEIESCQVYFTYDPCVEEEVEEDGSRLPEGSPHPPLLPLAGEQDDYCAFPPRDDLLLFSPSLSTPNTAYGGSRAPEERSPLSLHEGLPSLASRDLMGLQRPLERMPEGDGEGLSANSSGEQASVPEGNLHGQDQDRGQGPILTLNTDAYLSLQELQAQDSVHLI
T2 sequence (looked up) 3: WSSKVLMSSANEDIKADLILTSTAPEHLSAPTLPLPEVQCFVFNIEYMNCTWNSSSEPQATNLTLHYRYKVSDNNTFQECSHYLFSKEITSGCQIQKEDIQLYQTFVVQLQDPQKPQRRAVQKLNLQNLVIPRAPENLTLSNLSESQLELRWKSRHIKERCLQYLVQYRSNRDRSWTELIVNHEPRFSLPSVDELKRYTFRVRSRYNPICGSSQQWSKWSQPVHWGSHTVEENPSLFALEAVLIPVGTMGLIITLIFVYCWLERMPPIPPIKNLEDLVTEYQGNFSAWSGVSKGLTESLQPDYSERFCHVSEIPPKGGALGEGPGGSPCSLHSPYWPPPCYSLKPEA


Experiments:
Test in all cases: cell-based or functional assay
[1] = molecular target: high affinity IL2 receptor on CTLL-2 mouse T cells (mouse) (UniProt P01590)
[2] = molecular target: intermediate affinity IL2 receptor on TF-1β cells (UniProt P14784)
[3] = molecular target: T1, intermediate affinity IL2 receptor on …
[4] = molecular target: T2, high affinity IL2 receptor on CTLL-2 …

Relative Activity High aff/Inter Aff (high affinity part) [1] | Selectivity for High Affinity Receptor [1] | Relative Activity High aff/Inter Aff (intermediate affinity part) [2] | Relative Activity High aff/Inter Aff (intermediate affinity part) [3] | TF-1β (Int aff) ED50 [3] [µg/mL] | Relative Activity High aff/Inter Aff (high affinity part) [4] | Selectivity for High Affinity Receptor [4] | Molecule
1 | 1 | 1 |  |  |  |  | ch14.18-IL2-H heavy chain fusion (H-fusion with a chimeric 14.18)
 |  |  | 0.01 | > 0.5 | 1 | > 100 | 14.18-IL2-L containing SEQ ID NO: 5 (other) light: EIVMTQSPATLSVSPGERATLSCRSSQSLVHRNGNTYLHWYLQKPGQSPKLLIHKVSNRFSGVPDRFSGSGSGTDFTLKISRVEAEDLGVYFCSQSTHVPPLTFGAGTKLELKRTVAAPSVFIFPPSDEQLKSGTASVVCLLNNFYPREAKVQWKVDNALQSGNSQESVTEQDSKDSTYSLSSTLTLSKADYEKHKVYACEVTHQGLSSPVTKSFNRGECAPTSTQLQLEHLLLDLQMILNGINNYKNPKLTRMLTFKFYMPKKATELKHLQCLEEELKPLEEVLNLAQSKNFHLRPRDLISNINVIVLELKGSETTFMCEYADETATIVEFLNRWITFCQSIISTLT VH: EVQLLQSGPELEKPGASVMISCKASGSSFTGYNMNWVRQNIGKSLEWIGAIDPYYGGTSYNQKFKGRATLTVDKSSSTAYMHLKSLTSEDSAVYYCVSGMEYWGQGTSVTVSS
 |  |  | 0.01 | > 0.5 | 1 | > 100 | 14.18-IL2-L containing SEQ ID NO: 6 (other) light: IVMTQSPATLSVSPGERATLSCRSSQSLVHRNGNTYLHWYLQKPGQSPKLLIHKVSNRFSGVPDRFSGSGSGTDFTLKISRVEAEDLGVYFCSQSTHVPPLTFGAGTKLELKRTVAAPSVFIFPPSDEQLKSGTASVVCLLNNFYPREAKVQWKVDNALQSGNSQESVTEQDSKDSTYSLSSTLTLSKADYEKHKVYACEVTHQGLSSPVTKSFNRGECTQLQLEHLLLDLQMILNGINNYKNPKLTRMLTFKFYMPKKATELKHLQCLEEELKPLEEVLNLAQSKNFHLRPRDLISNINVIVLELKGSETTFMCEYADETATIVEFLNRWITFCQSIISTLT VH: EVQLLQSGPELEKPGASVMISCKASGSSFTGYNMNWVRQNIGKSLEWIGAIDPYYGGTSYNQKFKGRATLTVDKSSSTAYMHLKSLTSEDSAVYYCVSGMEYWGQGTSVTVSS
